# Laboratory results from patent publication US20140056907A1 (Regeneron, published 2014).
# T1: human ASIC1 (human, UniProt P78348 1-528)
# T1 sequence: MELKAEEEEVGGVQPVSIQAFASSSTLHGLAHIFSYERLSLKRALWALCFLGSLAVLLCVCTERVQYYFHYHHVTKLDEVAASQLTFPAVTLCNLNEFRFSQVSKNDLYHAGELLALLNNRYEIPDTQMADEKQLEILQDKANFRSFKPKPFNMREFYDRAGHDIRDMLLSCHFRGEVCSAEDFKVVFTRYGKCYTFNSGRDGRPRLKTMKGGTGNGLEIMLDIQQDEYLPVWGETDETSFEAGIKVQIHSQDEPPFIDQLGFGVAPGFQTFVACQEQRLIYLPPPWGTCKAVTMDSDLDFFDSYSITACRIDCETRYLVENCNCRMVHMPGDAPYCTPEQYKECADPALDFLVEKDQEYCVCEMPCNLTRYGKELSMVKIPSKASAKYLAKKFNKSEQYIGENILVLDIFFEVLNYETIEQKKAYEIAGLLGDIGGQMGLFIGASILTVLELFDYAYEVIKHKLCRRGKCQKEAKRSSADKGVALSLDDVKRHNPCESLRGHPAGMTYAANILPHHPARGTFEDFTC
# T2: mouse ASIC1a (mouse, UniProt Q6NXK8 1-526)
# T2 sequence (looked up): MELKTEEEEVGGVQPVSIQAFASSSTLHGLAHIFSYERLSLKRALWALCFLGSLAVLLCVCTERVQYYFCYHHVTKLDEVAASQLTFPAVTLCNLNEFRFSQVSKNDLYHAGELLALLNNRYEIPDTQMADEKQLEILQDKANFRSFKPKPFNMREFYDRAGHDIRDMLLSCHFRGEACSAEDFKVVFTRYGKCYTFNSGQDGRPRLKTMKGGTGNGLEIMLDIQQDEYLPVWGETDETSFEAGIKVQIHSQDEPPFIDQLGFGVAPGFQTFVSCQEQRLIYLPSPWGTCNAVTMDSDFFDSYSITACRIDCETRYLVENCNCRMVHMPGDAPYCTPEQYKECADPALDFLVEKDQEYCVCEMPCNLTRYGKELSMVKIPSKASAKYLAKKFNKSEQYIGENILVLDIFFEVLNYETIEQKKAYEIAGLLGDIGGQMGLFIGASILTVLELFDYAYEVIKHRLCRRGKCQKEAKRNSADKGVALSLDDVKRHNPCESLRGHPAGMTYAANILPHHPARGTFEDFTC
# T3: rat ASIC1 (rat, UniProt P55926 1-526)
# T3 construct: whole, on cells; ND7 is a fusion line of mouse neuroblastoma and rat dorsal root ganglia; also called rat ASIC1a
# T3 sequence (looked up): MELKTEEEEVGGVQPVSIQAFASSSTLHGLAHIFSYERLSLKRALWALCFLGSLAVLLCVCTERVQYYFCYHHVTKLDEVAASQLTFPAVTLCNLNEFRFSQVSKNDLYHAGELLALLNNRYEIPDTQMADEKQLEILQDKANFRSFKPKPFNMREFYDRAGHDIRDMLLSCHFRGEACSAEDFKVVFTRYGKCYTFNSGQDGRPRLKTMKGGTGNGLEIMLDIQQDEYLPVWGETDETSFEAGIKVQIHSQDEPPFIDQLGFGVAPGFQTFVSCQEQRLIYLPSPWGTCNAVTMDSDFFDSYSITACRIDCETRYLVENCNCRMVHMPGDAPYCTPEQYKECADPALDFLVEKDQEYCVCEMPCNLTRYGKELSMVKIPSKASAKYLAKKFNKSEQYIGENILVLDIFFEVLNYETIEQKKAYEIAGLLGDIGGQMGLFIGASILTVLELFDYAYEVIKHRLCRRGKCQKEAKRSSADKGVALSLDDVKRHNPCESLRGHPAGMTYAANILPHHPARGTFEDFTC
# Key:
# human ASIC1 [1] = target: T1, human ASIC1; assay: cell-based or functional assay
# human ASIC1 [2] = target: T1, human ASIC1; assay: cell-based or functional assay; remark: listed apart in the source
# mouse ASIC1a [3] = target: T2, mouse ASIC1a; assay: cell-based or functional assay
# human ASIC1 [4] = target: T1, human ASIC1; assay: FACS titration, 3T3/hASIC1 cells
# Protocol: To perform the FACS binding experiments, adherent cells were collected using 1 mM EDTA in PBS, then washed, and re-suspended in cold PBS containing 5% FBS. For each binding experiment, each anti-ASIC1 antibody ([…] or ND7 cells) was added to 250,000 cells in 500 μL of PBS with 5% FBS. After incubation for 20 minutes at room temperature, a secondary antibody which recognizes human Fc (Cat. No. 109-136-098, Jackson ImmunoResearch Laboratories, Inc., West Grove, Pa.) or mouse Fc (Cat. No. 550826, BD Biosciences, San Jose, Calif.) and is conjugated to allophycocyanin, was then added to the cell mixture at a final concentration of 13.3 nM. After incubating for 20 minutes on ice, the cells were washed and resuspended in PBS containing 5% FBS, then sorted and analyzed on a flow cytometer (FACSCalibur, BD Biosciences, San Jose, Calif.) to determine relative binding by the candidate antibodies to the tested cell lines. Histograms of cells stained with anti-ASIC1 antibodies were compared with those of cells stained with secondary antibody alone. Percentage of ASIC1 signal over secondary antibody alone was calculated using FlowJo software (Tree Star, Ashland, Oreg.).
# rat ASIC1 = target: T3, rat ASIC1; assay: FACS, undifferentiated ND7 cells
# Text: (§1) To further characterize anti-ASIC1 antibodies, their ability to bind either (a) a mouse fibroblast 3T3 cell line stably transfected to overexpress full length human ASIC1 (3T3/hASIC1; amino acids 1-528 of NCBI accession number NP_{—}001086.2 [SEQ ID NO:401]), (b) a 3T3 cell line stably transfected to over express full length mouse ASIC1a (3T3/mASIC1a; amino acids 1-526 of NCBI accession number NP_{—}033727), or (c) a ND7 cell line (ECACC, #92090903) that is a fusion cell line of mouse neuroblastoma and rat dorsal root ganglia that endogenously expresses rat ASIC1, was determined using flow cytometry (FACS). ND7 cells were differentiated by replacing the culture media with low-serum media (0.5% FBS) containing 1 mM dibutyryl-cAMP (Cat. No. sc-201567A, Santa Cruz Biotechnology, Inc., Santa Cruz, Calif.). FACS binding was tested for some antibodies on both undifferentiated ND7 cells and differentiated ND7 cells.
# (§2) To perform the FACS binding experiments, adherent cells were collected using 1 mM EDTA in PBS, then washed, and re-suspended in cold PBS containing 5% FBS. For each binding experiment, each anti-ASIC1 antibody (at final concentrations of 10 nM of purified antibodies or 3.3 nM for antibody supernatants for binding to 3T3/hASIC1 cells and 5 nM for binding to 3T3/mASIC1a or ND7 cells) was added to 250,000 cells in 500 μL of PBS with 5% FBS. […] After incubating for 20 minutes on ice, the cells were washed and resuspended in PBS containing 5% FBS, then sorted and analyzed on a flow cytometer (FACSCalibur, BD Biosciences, San Jose, Calif.) to determine relative binding by the candidate antibodies to the tested cell lines. […] Percentage of ASIC1 signal over secondary antibody alone was calculated using FlowJo software (Tree Star, Ashland, Oreg.).
# human ASIC1 [5] = target: T1, human ASIC1; assay: cell-based or functional assay; remark: listed apart in the source
# human ASIC1 [6] = target: T1, human ASIC1; assay: FACS, 3T3/hASIC1 cells
# Text: as §1, with “FACS binding was tested for some antibodies on both undifferentiated ND7 cells and differentiated ND7 cells.” left out
# as §2, with “containing” for “containing 5% FBS. For each binding experiment, each anti-ASIC1 antibody (at final concentrations of 10 nM of purified antibodies or 3.3 nM for antibody supernatants for binding to 3T3/hASIC1 cells and 5 nM for binding to 3T3/mASIC1a or ND7 cells) was added to 250,000 cells in 500 μL of PBS with”
# mouse ASIC1a [7] = target: T2, mouse ASIC1a; assay: FACS, 3T3/mASIC1a cells
# Text: as §1
# To perform the FACS binding experiments, adherent cells were collected using 1 mM EDTA in PBS, then washed, and re-suspended in cold PBS containing 5% FBS. For each binding experiment, each anti-ASIC1 antibody (at final concentrations of 10 nM of purified antibodies or 3.3 nM for antibody supernatants for binding to 3T3/hASIC1 cells and 5 nM for binding to 3T3/mASIC1a or ND7 cells) was added to 250,000 cells in 500 μL of PBS with 5% FBS. After incubation for 20 minutes at room temperature, a secondary antibody which recognizes human Fc (Cat. No. 109-136-098, Jackson ImmunoResearch Laboratories, Inc., West Grove, Pa.) or mouse Fc (Cat. No. 550826, BD Biosciences, San Jose, Calif.) and is conjugated to allophycocyanin, was then added to the cell mixture at a final concentration of 13.3 nM. After incubating for 20 minutes on ice, the cells were washed and resuspended in PBS containing 5% FBS, then sorted and analyzed on a flow cytometer (FACSCalibur, BD Biosciences, San Jose, Calif.) to determine relative binding by the candidate antibodies to the tested cell lines. Histograms of cells stained with anti-ASIC1 antibodies were compared with those of cells stained with secondary antibody alone. Percentage of ASIC1 signal over secondary antibody alone was calculated using FlowJo software (Tree Star, Ashland, Oreg.).
"FLIPR Dose Curve, pH 5.0 % Block (human ASIC1 [1]) [%]","FLIPR Dose Curve, pH 5.5 % Block (human ASIC1 [1]) [%]","FLIPR Dose Curve, pH 5.5 IC50 (human ASIC1 [1]) [nM]","apparent IC50, human ASIC1 current, Q-Patch (human ASIC1 [2]) [nM]","apparent IC50, mouse ASIC1 current, Q-Patch (mouse ASIC1a [3]) [nM]",EC50 (human ASIC1 [4]) [nM],"Current inhibition (%) at 100 nM antibody, Q-Patch, pH 6.0 (human ASIC1 [5]) [%]",binding result (human ASIC1 [6]),Binder,binding result (rat ASIC1),binding result (mouse ASIC1a [7])
25,44,0.3,≤ 10,< 25,0.085,100,,"H3M6721N (antibody, V domains shown, Chimeric: human variable, mouse constant domains; H3M prefix marks the Fc, isotype not spelled out) VH: EVQLLASGGGLVQPGGSLRLSCAASGFTFSSFAMSWVRQAPGKGLEWVSGISGSGVSTYYADSVKGRFTISRDNSKNTLYLQMNSLRAEDTAAYYCAKEAYKWQPWGQGIRVTVSS VL: not shown",no binding (tested: 5 nM; gated lower than 1%),
,,,,,,29,no binding,"H4H6362P (antibody, V domains shown) VH: QVQLVESGGGVVQPGRSLRLSCEASGFTFGSYGMHWVRQAPGKGLEWMAVISYDGNSRYSADSVKGRFTISRDNSKNTLYLQMNSLRAEDTALYYCAKENHIAARRPGGLDVWGQGTTVTVSS VL: DIQMTQSPSSLSASVGDRVTITCRASQGISIYLAWYQQKPGKVPKLLIYAASSLQSGVPSRFSGSGSGTDFTLTISSLQPEDVATYFCQNYNIAPWTLGQGTKVEIK",,
,,,,,,25,no binding,"H4H6381P (antibody, human IgG4, V domains shown) VH: QVQLVQSGAEVKKPGASVKVSCKASGYTFTSYGISWVRQAPGQGLEWMGWISAYNGNTNYAQKLQGRVTMTTDTSTSTAYMELRSLRSDDTAVYYCARDGSYSWFDPWGQGTLVTVSS VL: not shown",,
,,,≤ 10,< 25,1.7,92,,"H2M7103N (antibody, V domains shown, Chimeric: human variable, mouse constant domains; Fc isotype not spelled out; also called H2bM7103N) VH: EVQLVESGGGLVQPGGSLKLSCAASGFTFSSFWMSWVRQAPGKGLEWVANIKQNGSETYYVDSVKGRFTISRDNTKNSLYLQMNSLRAEDTAIYYCARGGRIQLWSSWFDPWGQGTLVTVSS VL: DIQMTQSPSSLSASVGDRVTITCRASQSIKNYLNWYQQKSGKAPKLLIYAASSLQSGVPSRVSGSGSGTDFTLTISSLHPEDFAAYYCQQSFSAPLTFGGGTKVEIK",no binding (tested: 5 nM; gated lower than 1%),
,,,≤ 10,< 25,1.1,82,,"H3M6720N (antibody, V domains shown, Chimeric: human variable, mouse constant domains; H3M prefix marks the Fc, isotype not spelled out) VH: EVQLVESGGGLVQPGGSLKLSCAASGFTFSSFWMSWVRQAPGKGLEWVANIKQNGSETYYVDSVKGRFTISRDNTKNSLYLQMNSLRAEDTAIYYCARGGRIQLWSSWFDPWGQGTLVTVSS VL: AIQMTQSPSSLSASVGDRVTITCRASQGISNDLGWYQQKPGKAPKLLIYGASSLQTGVPSRFSGSGSGTDFTLTISSLQPEDFATYYCLQDFNYPYTFGQGTKLEIK",no binding (tested: 5 nM; gated lower than 1%),no binding (tested: 5 nM; gated lower than 1%)
